The values below come from patent publication US20180179292A1, “RKIP AGONISM IN THE TREATMENT AND PREVENTION OF HEART FAILURE” (Leibniz-Institut für analytische Wissenschaften- ISAS-e.V., priority 2015, published 2018).

The subject of test [1] is neonatal rat cardiomyocytes (NRCM). Put plainly: Contractile activity of neonatal rat cardiomyocytes. The format is cell-based. Particulars: in the presence of isoprenaline (50 nM), 33° C., beats per minute. The procedure: NRCM were cultured for 24 h and transduced as indicated with a control virus (LacZ) or a virus encoding RKIP-wt and/or treated with rituximab as indicated. The spontaneous contractions were measured at 33° C. for one minute and normalized for each experiment to LacZ under unstimulated conditions. NRCM were then stimulated with isoproterenol (50 nM) and after 2 min contractions were counted again. SEM; *, p<0.0001, n=5
Neonatal rat cardiomyocytes were isolated as described (Lorenz et al. Nature 2003, 426:574-579; Vidal et al., Cardiovasc. Res. 2012, 96:255-264). Cardiomyocytes were transduced by adenoviruses or treated with indicated antibodies. To monitor the contractile activity of cardiomyocytes, live cells were examined on a Zeiss Axiovert 135 microscope.

Test [2] concerns neonatal rat cardiac fibroblasts. Put plainly: [3H]Thymidine incorporation in neonatal rat fibroblasts. The format is cell-based. The note with it: adenovirally transduced Flag-RKIP, 0.1% FCS, 96 h. (In general: Dividing cells build labelled thymidine or BrdU into new DNA.)

B1: RKIP: Raf kinase inhibitor protein, overexpressed in cells by adenoviral transduction (protein, UniProt P30086 2-187, looked up)
Phosphatidylethanolamine-bindi …: PVDLSKWSGPLSLQEVDEQPQHPLHVTYAGAAVDELGKVLTPTQVKNRPTSISWDGLDSGKLYTLVLTDPDAPSRKDPKYREWHHFLVVNMKGNDISSGTVLSDYVGSGPPKGTGLHRYVWLVYEQDRPLKCDEPILSNRSGDHRGKFKVASFRKKYELRAPVAGTCYQAEWDDYVPKLYEQLSGK
modifications: Flag tag
As for B1, the NRCM contractility entry in test [1] is recorded as “increased NRCM contractility”. Moreover, in test [2], the “proliferation ([3H]thymidine incorporation)” value was “minor but significant anti-proliferative effect”.
